Experimental data as given in PMC10786891, “Massively parallel profiling of RNA-targeting CRISPR-Cas13d”.

T1: EsCas13d, nuclease-dead (Eubacterium siraeum, UniProt B0MS50, R295A;H300A;R849A;H854A)
T1 sequence: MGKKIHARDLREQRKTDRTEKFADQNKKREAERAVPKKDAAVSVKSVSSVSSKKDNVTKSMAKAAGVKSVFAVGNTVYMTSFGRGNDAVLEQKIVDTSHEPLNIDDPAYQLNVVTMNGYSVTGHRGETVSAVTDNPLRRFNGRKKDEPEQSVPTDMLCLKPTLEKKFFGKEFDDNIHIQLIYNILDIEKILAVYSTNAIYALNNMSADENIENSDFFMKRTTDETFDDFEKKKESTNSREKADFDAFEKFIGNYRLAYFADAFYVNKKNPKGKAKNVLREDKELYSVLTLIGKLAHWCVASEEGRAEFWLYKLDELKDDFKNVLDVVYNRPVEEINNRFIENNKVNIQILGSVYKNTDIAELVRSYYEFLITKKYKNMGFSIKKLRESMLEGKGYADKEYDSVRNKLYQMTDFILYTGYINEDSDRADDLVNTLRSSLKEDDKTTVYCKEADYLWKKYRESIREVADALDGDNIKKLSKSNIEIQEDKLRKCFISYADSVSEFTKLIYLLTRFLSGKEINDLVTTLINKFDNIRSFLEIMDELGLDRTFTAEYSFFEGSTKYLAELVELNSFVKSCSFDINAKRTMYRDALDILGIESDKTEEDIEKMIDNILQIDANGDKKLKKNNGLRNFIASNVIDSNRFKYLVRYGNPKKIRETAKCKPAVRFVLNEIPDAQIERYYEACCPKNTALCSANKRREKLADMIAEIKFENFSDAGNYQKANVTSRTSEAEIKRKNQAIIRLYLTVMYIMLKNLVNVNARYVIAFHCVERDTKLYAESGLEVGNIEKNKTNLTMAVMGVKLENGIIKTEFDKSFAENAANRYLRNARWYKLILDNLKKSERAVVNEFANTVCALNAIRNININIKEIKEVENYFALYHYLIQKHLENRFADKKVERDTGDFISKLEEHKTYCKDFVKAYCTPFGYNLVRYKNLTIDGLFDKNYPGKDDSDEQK


molecular target: T1, EsCas13d, nuclease-dead; assay: crRNA (strand 1, pre-loaded); Mg2+; 40 mM Tris-HCl pH 7.5, 150 mM NaCl, 6 mM MgCl2, 1 mM DTT, 0.1% Tween-20, 0.2 mg/ml BSA; 25 C; 10 min per concentration, then washed; conditions: tags: His6-TwinStrep-SUMO cleaved; N-terminal SNAP kept (SNAP-Surface 488); label: 3' end held by stalled T7 RNA polymerase

| Binder | Kd [nM] |
| --- | --- |
| target 1 del5,del7 (mixed) RNA 1: CACCCGUGCAAAAAUGCAGGGGUCUAAAACUGAGCGGAUAACCUCUCUAUGG RNA 2: GGGAAUGGAUCCACAUCUACGAAUUCGUACCAUAGAGAGGUUAUCCUCACCGAGAUCGGAAGAGCACACGU | 13.9 ± 0.7 |
| target 1 insC 3' of 11,insG 3' of 2 (mixed) RNA 1: CACCCGUGCAAAAAUGCAGGGGUCUAAAACUGAGCGGAUAACCUCUCUAUGG RNA 2: GGGAAUGGAUCCACAUCUACGAAUUCGUACCAUAGAGAGGUCUAUCCGCUCGACCGAGAUCGGAAGAGCACACGU | 42 ± 14 |
| target 1 U3G,A18U (mixed) RNA 1: CACCCGUGCAAAAAUGCAGGGGUCUAAAACUGAGCGGAUAACCUCUCUAUGG RNA 2: GGGAAUGGAUCCACAUCUACGAAUUCGUACCAUUGAGAGGUUAUCCGCGCACCGAGAUCGGAAGAGCACACGU | 20.5 ± 1.3 |
| target 1 insA 3' of 22,insU 3' of 18 (mixed) RNA 1: CACCCGUGCAAAAAUGCAGGGGUCUAAAACUGAGCGGAUAACCUCUCUAUGG RNA 2: GGGAAUGGAUCCACAUCUACGAAUUCGUACACAUAUGAGAGGUUAUCCGCUCACCGAGAUCGGAAGAGCACACGU | 47 ± 6 |
| target 1 insA 3' of 7,insA 3' of 7 (mixed) RNA 1: CACCCGUGCAAAAAUGCAGGGGUCUAAAACUGAGCGGAUAACCUCUCUAUGG RNA 2: GGGAAUGGAUCCACAUCUACGAAUUCGUACCAUAGAGAGGUUAUCAACGCUCACCGAGAUCGGAAGAGCACACGU | 7 ± 0.5 |
| target 1 insA 3' of 3,insC 3' of 3 (mixed) RNA 1: CACCCGUGCAAAAAUGCAGGGGUCUAAAACUGAGCGGAUAACCUCUCUAUGG RNA 2: GGGAAUGGAUCCACAUCUACGAAUUCGUACCAUAGAGAGGUUAUCCGCUACCACCGAGAUCGGAAGAGCACACGU | 62 ± 19 |
| target 1 insU 3' of 21,insA 3' of 7 (mixed) RNA 1: CACCCGUGCAAAAAUGCAGGGGUCUAAAACUGAGCGGAUAACCUCUCUAUGG RNA 2: GGGAAUGGAUCCACAUCUACGAAUUCGUACCUAUAGAGAGGUUAUCACGCUCACCGAGAUCGGAAGAGCACACGU | 20.3 ± 0.9 |
| target 1 insU 3' of 15,insC 3' of 14 (mixed) RNA 1: CACCCGUGCAAAAAUGCAGGGGUCUAAAACUGAGCGGAUAACCUCUCUAUGG RNA 2: GGGAAUGGAUCCACAUCUACGAAUUCGUACCAUAGAGUACGGUUAUCCGCUCACCGAGAUCGGAAGAGCACACGU | 43 ± 6 |
| target 1 insC 3' of 11,insG 3' of 10 (mixed) RNA 1: CACCCGUGCAAAAAUGCAGGGGUCUAAAACUGAGCGGAUAACCUCUCUAUGG RNA 2: GGGAAUGGAUCCACAUCUACGAAUUCGUACCAUAGAGAGGUCUGAUCCGCUCACCGAGAUCGGAAGAGCACACGU | 23.4 ± 2.5 |
| target 1 insC 3' of 10,insG 3' of 10 (mixed) RNA 1: CACCCGUGCAAAAAUGCAGGGGUCUAAAACUGAGCGGAUAACCUCUCUAUGG RNA 2: GGGAAUGGAUCCACAUCUACGAAUUCGUACCAUAGAGAGGUUCGAUCCGCUCACCGAGAUCGGAAGAGCACACGU | 13.6 ± 0.5 |
| target 1 insA 3' of 17,insG 3' of 10 (mixed) RNA 1: CACCCGUGCAAAAAUGCAGGGGUCUAAAACUGAGCGGAUAACCUCUCUAUGG RNA 2: GGGAAUGGAUCCACAUCUACGAAUUCGUACCAUAGAAGAGGUUGAUCCGCUCACCGAGAUCGGAAGAGCACACGU | 43 ± 9 |
| target 1 insG 3' of 22,insC 3' of 5 (mixed) RNA 1: CACCCGUGCAAAAAUGCAGGGGUCUAAAACUGAGCGGAUAACCUCUCUAUGG RNA 2: GGGAAUGGAUCCACAUCUACGAAUUCGUACGCAUAGAGAGGUUAUCCGCCUCACCGAGAUCGGAAGAGCACACGU | 67 ± 23 |
| target 1 C6A,U8C (mixed) RNA 1: CACCCGUGCAAAAAUGCAGGGGUCUAAAACUGAGCGGAUAACCUCUCUAUGG RNA 2: GGGAAUGGAUCCACAUCUACGAAUUCGUACCAUAGAGAGGUUACCAGCUCACCGAGAUCGGAAGAGCACACGU | 10.7 ± 0.6 |
